This note sets out measurements from article PMC12402178 (2025).

Assay [1] deals with T1, microtubules polymerised from porcine brain tubulin (GMPCPP-stabilised seeds, dynamic GDP lattice, or … (porcine, UniProt P02550 1-451, part of the tubulin labelled with Rhodamine or HiLyte 647)); part biotinylated (surface-immobilised microtubules) | part of the tubulin labelled with Rhodamine or HiLyte 647; part biotinylated …). The assay is described as follows: FRAP, microtubule-microtubule overlap (median).
T1 sequence (P02550 whole entry, chain 1 of 2): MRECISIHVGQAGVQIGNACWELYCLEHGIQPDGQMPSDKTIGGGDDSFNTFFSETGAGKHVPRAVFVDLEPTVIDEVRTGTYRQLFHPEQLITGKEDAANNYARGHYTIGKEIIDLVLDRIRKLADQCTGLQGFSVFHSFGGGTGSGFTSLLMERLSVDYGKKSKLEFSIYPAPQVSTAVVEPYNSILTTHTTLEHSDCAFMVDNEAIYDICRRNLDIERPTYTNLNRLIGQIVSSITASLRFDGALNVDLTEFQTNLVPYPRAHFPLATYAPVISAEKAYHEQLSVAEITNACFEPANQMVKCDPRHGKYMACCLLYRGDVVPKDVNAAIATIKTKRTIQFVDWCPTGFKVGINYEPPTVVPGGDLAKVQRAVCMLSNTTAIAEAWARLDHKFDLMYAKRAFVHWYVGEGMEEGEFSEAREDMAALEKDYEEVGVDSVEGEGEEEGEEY
T1 sequence (chain, as listed by the source, chain 2 of 2): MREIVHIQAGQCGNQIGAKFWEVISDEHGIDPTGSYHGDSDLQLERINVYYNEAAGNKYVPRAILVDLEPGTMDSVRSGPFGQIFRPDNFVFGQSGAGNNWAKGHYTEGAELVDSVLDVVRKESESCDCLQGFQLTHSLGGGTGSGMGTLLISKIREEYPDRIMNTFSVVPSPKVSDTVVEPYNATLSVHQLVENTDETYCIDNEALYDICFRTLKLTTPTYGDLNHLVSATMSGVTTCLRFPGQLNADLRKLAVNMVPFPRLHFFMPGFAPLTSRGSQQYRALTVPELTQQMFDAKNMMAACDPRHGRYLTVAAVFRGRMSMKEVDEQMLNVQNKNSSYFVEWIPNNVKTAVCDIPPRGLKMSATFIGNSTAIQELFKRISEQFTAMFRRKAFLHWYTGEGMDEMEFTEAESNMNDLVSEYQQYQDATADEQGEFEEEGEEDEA

Assay [2] addresses T1, microtubules polymerised from porcine …. Put plainly: FRAP, actin-microtubule overlap (median), with actin filaments.

B1: Anillin-GFP (full-length human anillin, isoform 2, 1087 amino acids) (natural protein)
chain: MDPFTEKLLERTRARRENLQRKMAERPTAAPRSMTHAKRARQPLSEASNQQPLSGGEEKSCTKPSPSKKRCSDNTEVEVSNLENKQPVESTSAKSCSPSPVSPQVQPQAADTISDSVAVPASLLGMRRGLNSRLEATAASSVKTRMQKLAEQRRRWDNDDMTDDIPESSLFSPMPSEEKAASPPRPLLSNASATPVGRRGRLANLAATICSWEDDVNHSFAKQNSVQEQPGTACLSKFSSASGASARINSSSVKQEATFCSQRDGDASLNKALSSSADDASLVNASISSSVKATSPVKSTTSITDAKSCEGQNPELLPKTPISPLKTGVSKPIVKSTLSQTVPSKGELSREICLQSQSKDKSTTPGGTGIKPFLERFGERCQEHSKESPARSTPHRTPIITPNTKAIQERLFKQDTSSSTTHLAQQLKQERQKELACLRGRFDKGNIWSAEKGGNSKSKQLETKQETHCQSTPLKKHQGVSKTQSLPVTEKVTENQIPAKNSSTEPKEVIREIEMSVDDDDINSSKVINDLFSDVLEEGELDMEKSQEEMDQALAESSEEQEDALNISSMSLLAPLAQTVGVVSPESLVSTPRLELKDTSRSDESPKPGKFQRTRVPRAESGDSLGSEDRDLLYSIDAYRSQRFKETERPSIKQVIVRKEDVTSKLDEKNNAFPCQVNIKQKMQELNNEINMQQTVIYQASQALNCCVDEEHGKGSLEEAEAERLLLIATGKRTLLIDELNKLKNEGPQRKNKASPQSEFMPSKGSVTLSEIRLPLKADFVCSTVQKPDAANYYYLIILKAGAENMVATPLASTSNSLNGDALTFTTTFTLQDVSNDFEINIEVYSLVQKKDPSGLDKKKKTSKSKAITPKRLLTSITTKSNIHSSVMASPGGLSAVRTSNFALVGSYTLSLSSVGNTKFVLDKVPFLSSLEGHIYLKIKCQVNSSVEERGFLTIFEDVSGFGAWHRRWCVLSGNCISYWTYPDDEKRKNPIGRINLANCTSRQIEPANREFCARRNTFELITVRPQREDDRETLVSQCRDTLCVTKNWLSADTKEERDLWMQKLNQVLVDIRLWQPDACYKPIGKP
On to B1, for which the koff was 0.29 s⁻¹ in assay [1] and 0.513 s⁻¹ in assay [2].

In general, koff refers to the rate constant with which the complex falls apart. A lower koff goes with a long-lived complex.
